* marks the point of attachment. Palmitoyl = CCCCCCCCCCCCCCCC(=O)*
B1: P2pal-14GQ (peptide)
peptide: Palmitoyl-GDENSEKKRKQAIK-NH2
SMILES: CCCCCCCCCCCCCCCC(=O)NCC(=O)N[C@@H](CC(=O)O)C(=O)N[C@@H](CCC(=O)O)C(=O)N[C@@H](CC(N)=O)C(=O)N[C@@H](CO)C(=O)N[C@@H](CCC(=O)O)C(=O)N[C@@H](CCCCN)C(=O)N[C@@H](CCCCN)C(=O)N[C@@H](CCCNC(=N)N)C(=O)N[C@@H](CCCCN)C(=O)N[C@@H](CCC(N)=O)C(=O)N[C@@H](C)C(=O)N[C@H](C(=O)N[C@@H](CCCCN)C(N)=O)[C@@H](C)CC
B2: P1pal-i1-11 (peptide)
peptide: Palmitoyl-ILKMKVKKPAV-NH2
SMILES: CCCCCCCCCCCCCCCC(=O)N[C@H](C(=O)N[C@@H](CC(C)C)C(=O)N[C@@H](CCCCN)C(=O)N[C@@H](CCSC)C(=O)N[C@@H](CCCCN)C(=O)N[C@H](C(=O)N[C@@H](CCCCN)C(=O)N[C@@H](CCCCN)C(=O)N1CCC[C@H]1C(=O)N[C@@H](C)C(=O)N[C@H](C(N)=O)C(C)C)C(C)C)[C@@H](C)CC
B3: P1pal-10S (peptide)
peptide: Palmitoyl-NRSKKSSALF-NH2
SMILES: CCCCCCCCCCCCCCCC(=O)N[C@@H](CC(N)=O)C(=O)N[C@@H](CCCNC(=N)N)C(=O)N[C@@H](CO)C(=O)N[C@@H](CCCCN)C(=O)N[C@@H](CCCCN)C(=O)N[C@@H](CO)C(=O)N[C@@H](CO)C(=O)N[C@@H](C)C(=O)N[C@@H](CC(C)C)C(=O)N[C@@H](Cc1ccccc1)C(N)=O
B4: P2pal-18S pepducin (peptide)
peptide: Palmitoyl-RSSAMDENSEKKRKSAIK-NH2
SMILES: CCCCCCCCCCCCCCCC(=O)N[C@@H](CCCNC(=N)N)C(=O)N[C@@H](CO)C(=O)N[C@@H](CO)C(=O)N[C@@H](C)C(=O)N[C@@H](CCSC)C(=O)N[C@@H](CC(=O)O)C(=O)N[C@@H](CCC(=O)O)C(=O)N[C@@H](CC(N)=O)C(=O)N[C@@H](CO)C(=O)N[C@@H](CCC(=O)O)C(=O)N[C@@H](CCCCN)C(=O)N[C@@H](CCCCN)C(=O)N[C@@H](CCCNC(=N)N)C(=O)N[C@@H](CCCCN)C(=O)N[C@@H](CO)C(=O)N[C@@H](C)C(=O)N[C@H](C(=O)N[C@@H](CCCCN)C(N)=O)[C@@H](C)CC
B5: P2pal-18Q (peptide)
peptide: Palmitoyl-RSSAMDENSEKKRKQAIK-NH2
SMILES: CCCCCCCCCCCCCCCC(=O)N[C@@H](CCCNC(=N)N)C(=O)N[C@@H](CO)C(=O)N[C@@H](CO)C(=O)N[C@@H](C)C(=O)N[C@@H](CCSC)C(=O)N[C@@H](CC(=O)O)C(=O)N[C@@H](CCC(=O)O)C(=O)N[C@@H](CC(N)=O)C(=O)N[C@@H](CO)C(=O)N[C@@H](CCC(=O)O)C(=O)N[C@@H](CCCCN)C(=O)N[C@@H](CCCCN)C(=O)N[C@@H](CCCNC(=N)N)C(=O)N[C@@H](CCCCN)C(=O)N[C@@H](CCC(N)=O)C(=O)N[C@@H](C)C(=O)N[C@H](C(=O)N[C@@H](CCCCN)C(N)=O)[C@@H](C)CC

How the values were obtained:
[1] = target: protease-activated receptor-2 (PAR2), wild type, on cells (human, UniProt P55085 37-397); assay: cell-based or functional assay
[2] = target: T1, protease-activated receptor 1 (PAR1), on cells (human, UniProt P25116 42-425); assay: cell-based or functional assay
T1 sequence (looked up): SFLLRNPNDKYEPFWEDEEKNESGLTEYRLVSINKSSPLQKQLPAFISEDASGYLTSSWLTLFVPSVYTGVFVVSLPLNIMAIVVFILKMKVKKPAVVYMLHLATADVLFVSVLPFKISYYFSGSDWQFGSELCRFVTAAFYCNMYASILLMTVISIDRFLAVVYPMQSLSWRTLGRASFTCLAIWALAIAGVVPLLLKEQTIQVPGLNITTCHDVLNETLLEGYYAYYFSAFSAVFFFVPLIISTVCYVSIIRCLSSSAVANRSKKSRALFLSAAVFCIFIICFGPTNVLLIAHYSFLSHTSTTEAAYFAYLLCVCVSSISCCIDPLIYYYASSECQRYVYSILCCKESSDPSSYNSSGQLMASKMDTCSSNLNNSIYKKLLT

Row | Binder | IC50, Ca++ mobilization by SFLLRN in human platelets [2] | IC50, thrombin-induced ERK1/2 phosphorylation in A549 cells [2] | calcium flux in SW620 cells, antagonist activity against SLIGRL [1] | also measured
1 | B1 | – | – | – | IC50, calcium flux induced by 30 µM SLIGRL in SW620 cells [1]: 8000 µM
2 | B2 | 1.3 µM | – | – | –
3 | Palmitoyl-KKSRALF-NH2 [P1pal-7] | 0.55 µM | 0.2 µM | – | –
4 | B3 | 0.7 µM | 0.8 µM | – | –
5 | B4 | – | – | 77 % inhibition | –
6 | B5 | – | – | 29 % inhibition | –
